Experimental data taken from patent US6248875, “Neuronal MORT1 isoforms” (American Home Products Corporation, dated 2001).

Biological target: T1, SNF4-pACTII (unrelated fusion with Gal4 activation domain) (yeast, UniProt P12904)
T1 sequence: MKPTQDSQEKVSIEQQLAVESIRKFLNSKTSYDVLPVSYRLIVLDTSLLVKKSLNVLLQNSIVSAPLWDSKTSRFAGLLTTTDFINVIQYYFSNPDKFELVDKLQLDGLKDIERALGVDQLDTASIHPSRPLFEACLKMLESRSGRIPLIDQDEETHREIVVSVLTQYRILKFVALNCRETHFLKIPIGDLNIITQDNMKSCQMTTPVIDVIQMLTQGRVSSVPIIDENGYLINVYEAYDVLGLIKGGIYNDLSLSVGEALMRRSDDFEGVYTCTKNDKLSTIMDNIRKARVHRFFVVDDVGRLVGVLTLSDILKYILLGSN
Assay: yeast two-hybrid, HIS3 reporter, strain YCB5.1
Experimental: Figure 1: FIG. 1: Investigation of the MORT1 transcript isoforms with MACHα1 C360S in a yeast two-hybrid system: Activation of the HIS3 reporter gene. Each MORT1 transcript isoforms was expressed as a fusion protein with Gal4 DNA binding domain. MACHα1 C360S was expressed as a fusion protein with the Gal4 activation domain. Yeast strains were plated at a cell density of 5 ×10^1, 5 ×10^2, 5 ×10^3, 5 ×10^4 and 5 ×10^5 (left to right within a plate. Sibling isolates from yeast strains expressing a MORT1 transcript isoform with MACHα1 C360S fusion proteins were plated on histidine deficient media containing 0, 20 or 40 mM 3-aminotriazole (3-AT). The top row of plates (1) contained yeast strains that express two fusion proteins as follows: YCB5: MORT1-pAS1/MACHα1 C360S-pACTII; YCB9: MORT1Δ21-pAS1/MACHα1 C360S-pACTII; YCB16: MORT1 G173A-pAS1/MACHα1 C360S-pACTII. The bottom row of plates (3) contains negative control strains which express only the MORT1 transcript isoform fusion protein with a recombinant vector containing nonrelated heterologous DNA, as follows: YCB5.1: MORT1-pAS1/SNF4-pACTII; YCB9.1: […]. […] Each MORT1 transcript isoforms was expressed as a fusion protein with Gal4 DNA binding domain. MACHα1 C360S was expressed as a fusion protein with the Gal4 activation domain. […]

B1: MORT1 fusion protein with Gal4 DNA binding domain (MORT1-pAS1) (other)
chain: MDPFLVLLHSVSSSLSSSELTELKFLCLGRVGKRKLERVQSGLDLFSMLLEQNDLEPGHTELLRELLASLRRHDLLRRVDDFEAGAAAGAAPGEEDLCAAFNVICDNVGKDWRRLARQLKVSDTKIDSIEDRYPRNLTERVRESLRIWKNTEKENATVAHLVGALRSCQMNLVADLVQEVQQARDLQNRSGAMSPMSWNSDASTSEAS
Does B1 bind?
Result: no binding
